Data as given in US20120039802A1 (published 2012).
Ends that are not written are not given here.

B1: 552-F02 peptide-displaying phage (SEQ ID NO: 092) (peptide)
peptide: AGMTLCAGPPTFECYEVGT
B2: 573-F04 peptide-displaying phage (SEQ ID NO: 011) (peptide)
peptide: AGGFACGPPWDICWMFGT
B3: 545-E04 peptide-displaying phage (SEQ ID NO: 093) (peptide)
peptide: AGETKCSGPPYFYCWMEGT
B4: 545-C11 peptide-displaying phage (SEQ ID NO: 367) (peptide)
peptide: GSFAPCGWPSFAIDCIAEAP
B5: 549-D02 peptide-displaying phage (SEQ ID NO: 091) (peptide)
peptide: AGNYWCSGPPSFICHAVGT
B6: 552-G09 peptide-displaying phage (SEQ ID NO: 096) (peptide)
peptide: AGEIFCVGPPTFTCMWTGT
B7: 545-E05 peptide-displaying phage (SEQ ID NO: 094) (peptide)
peptide: AGETFCVGNPSFECWSWGT
B8: 551-H10 peptide-displaying phage (SEQ ID NO: 370) (peptide)
peptide: GSFFPCWRIDRFGYCHANAP
B9: 550-F11 peptide-displaying phage (SEQ ID NO: 089) (peptide)
peptide: AGQFYCSGPPTFQCIMIGT
modifications: not fully specified (bridges); cysteine pairing not given here
B10: 465-A03 peptide-displaying phage (SEQ ID NO: 373) (peptide)
peptide: GSSQICAVYLDDTHNCERHAP
B11: 549-G01 peptide-displaying phage (SEQ ID NO: 368) (peptide)
peptide: GSTKVCHEKWNQLFCHNQAP
B12: 465-C10 peptide-displaying phage (SEQ ID NO: 101) (peptide)
peptide: GSILYCINRNDPQCPYTAP
B13: 550-A08 peptide-displaying phage (SEQ ID NO: 097) (peptide)
peptide: AGDFICQGPPSFVCTNIGT
B14: 550-G07 peptide-displaying phage (SEQ ID NO: 098) (peptide)
peptide: AGAFFCSGPPTFMCSLYGT
B15: 446-E12 peptide-displaying phage (SEQ ID NO: 374) (peptide)
peptide: GSSHCNQMITPWQNCGMRAP
B16: 548-D08 peptide-displaying phage (SEQ ID NO: 090) (peptide)
peptide: AGPWKCTGPPTFSCIQFGT
B17: 557-A12 peptide-displaying phage (SEQ ID NO: 372) (peptide)
peptide: GSTMSCWRWGRDAYSCNQMAP
B18: 547-H03 peptide-displaying phage (SEQ ID NO: 095) (peptide)
peptide: AGETFCSGWPTFECMQWGT
B19: 551-A05 peptide-displaying phage (SEQ ID NO: 099) (peptide)
peptide: AGWGWCSGPPMFMCTEYGT
B20: 443-H10 peptide-displaying phage (SEQ ID NO: 371) (peptide)
peptide: GSQQICDRKEYRFQACLSDAP
B21: 548-C10 peptide-displaying phage (SEQ ID NO: 100) (peptide)
peptide: GSEFECTGWPEFRCYEYAP
B22: 561-C08 peptide-displaying phage (SEQ ID NO: 010) (peptide)
peptide: GSFNICPYQWCTLWAP

How the values were obtained:
[1] = target: T1, cMet-Fc fusion protein (extracellular domain of the cMet receptor expressed as an Fc-fusion protein) (human, UniProt P08581 25-932); test: phage ELISA on cMet-Fc, competitor HGF 500 ng/mL
T1 construct: extracellular domain; also called soluble cMet-Fc-fusion protein; soluble cMet receptor; not shown: Fc part
T1 sequence (P08581 25-932): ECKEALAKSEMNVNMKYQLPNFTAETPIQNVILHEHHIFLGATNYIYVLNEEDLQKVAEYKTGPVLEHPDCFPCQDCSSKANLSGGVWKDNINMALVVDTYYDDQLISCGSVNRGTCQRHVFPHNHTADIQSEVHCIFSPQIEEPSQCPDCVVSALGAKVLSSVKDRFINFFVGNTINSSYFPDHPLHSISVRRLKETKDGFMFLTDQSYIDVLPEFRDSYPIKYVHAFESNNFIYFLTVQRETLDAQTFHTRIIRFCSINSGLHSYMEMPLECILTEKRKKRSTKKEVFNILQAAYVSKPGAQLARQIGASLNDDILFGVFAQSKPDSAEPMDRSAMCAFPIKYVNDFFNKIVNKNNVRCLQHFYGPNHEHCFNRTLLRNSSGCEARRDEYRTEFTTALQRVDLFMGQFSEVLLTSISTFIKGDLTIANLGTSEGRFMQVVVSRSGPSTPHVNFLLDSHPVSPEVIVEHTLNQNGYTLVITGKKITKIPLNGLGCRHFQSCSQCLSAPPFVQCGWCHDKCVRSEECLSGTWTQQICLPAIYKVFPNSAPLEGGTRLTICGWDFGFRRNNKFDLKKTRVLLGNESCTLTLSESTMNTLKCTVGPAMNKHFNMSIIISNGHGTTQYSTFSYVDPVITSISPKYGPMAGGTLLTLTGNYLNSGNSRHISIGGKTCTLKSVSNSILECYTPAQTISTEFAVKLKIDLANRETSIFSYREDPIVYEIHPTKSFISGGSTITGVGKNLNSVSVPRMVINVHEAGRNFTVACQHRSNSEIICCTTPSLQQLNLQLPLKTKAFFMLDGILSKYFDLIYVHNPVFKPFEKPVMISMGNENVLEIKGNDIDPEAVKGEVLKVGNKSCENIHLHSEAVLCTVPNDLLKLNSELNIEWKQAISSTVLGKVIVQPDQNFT
Summary of the method: (§1)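 Plates coated with 0.5 μg/mL cMet-Fc, with TRAIL-Fc as background, then blocked with 3% BSA. Bound phage detected with HRP anti-M13 antibody.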

[2] = target: T1, cMet-Fc fusion protein (extracellular …); test: phage ELISA on cMet-Fc, competitor HGF 100 ng/mL
Summary of the method: as §1

[3] = target: T1, cMet-Fc fusion protein (extracellular …); test: phage ELISA, cMet-Fc vs TRAIL-Fc
Summary of the method: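 Plates coated overnight at 4 C with 0.5 μg/mL cMet-Fc, or TRAIL-Fc as background, were blocked with 3% BSA in PBST. Peptide-displaying phage were bound 2 h at room temperature. Bound phage were detected with HRP-conjugated anti-M13 antibody.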

[4] = target: T2, human cMet expressed on 3T3 cells (human, UniProt P08581 25-1390); test: whole cell phage ELISA, 3T3 human cMet vs 3T3
T2 construct: whole, on cells; cells fixed with glutaraldehyde; also called cell surface-expressed human cMet; 3T3 cells that over-express human cMet
T2 sequence (P08581 25-1390): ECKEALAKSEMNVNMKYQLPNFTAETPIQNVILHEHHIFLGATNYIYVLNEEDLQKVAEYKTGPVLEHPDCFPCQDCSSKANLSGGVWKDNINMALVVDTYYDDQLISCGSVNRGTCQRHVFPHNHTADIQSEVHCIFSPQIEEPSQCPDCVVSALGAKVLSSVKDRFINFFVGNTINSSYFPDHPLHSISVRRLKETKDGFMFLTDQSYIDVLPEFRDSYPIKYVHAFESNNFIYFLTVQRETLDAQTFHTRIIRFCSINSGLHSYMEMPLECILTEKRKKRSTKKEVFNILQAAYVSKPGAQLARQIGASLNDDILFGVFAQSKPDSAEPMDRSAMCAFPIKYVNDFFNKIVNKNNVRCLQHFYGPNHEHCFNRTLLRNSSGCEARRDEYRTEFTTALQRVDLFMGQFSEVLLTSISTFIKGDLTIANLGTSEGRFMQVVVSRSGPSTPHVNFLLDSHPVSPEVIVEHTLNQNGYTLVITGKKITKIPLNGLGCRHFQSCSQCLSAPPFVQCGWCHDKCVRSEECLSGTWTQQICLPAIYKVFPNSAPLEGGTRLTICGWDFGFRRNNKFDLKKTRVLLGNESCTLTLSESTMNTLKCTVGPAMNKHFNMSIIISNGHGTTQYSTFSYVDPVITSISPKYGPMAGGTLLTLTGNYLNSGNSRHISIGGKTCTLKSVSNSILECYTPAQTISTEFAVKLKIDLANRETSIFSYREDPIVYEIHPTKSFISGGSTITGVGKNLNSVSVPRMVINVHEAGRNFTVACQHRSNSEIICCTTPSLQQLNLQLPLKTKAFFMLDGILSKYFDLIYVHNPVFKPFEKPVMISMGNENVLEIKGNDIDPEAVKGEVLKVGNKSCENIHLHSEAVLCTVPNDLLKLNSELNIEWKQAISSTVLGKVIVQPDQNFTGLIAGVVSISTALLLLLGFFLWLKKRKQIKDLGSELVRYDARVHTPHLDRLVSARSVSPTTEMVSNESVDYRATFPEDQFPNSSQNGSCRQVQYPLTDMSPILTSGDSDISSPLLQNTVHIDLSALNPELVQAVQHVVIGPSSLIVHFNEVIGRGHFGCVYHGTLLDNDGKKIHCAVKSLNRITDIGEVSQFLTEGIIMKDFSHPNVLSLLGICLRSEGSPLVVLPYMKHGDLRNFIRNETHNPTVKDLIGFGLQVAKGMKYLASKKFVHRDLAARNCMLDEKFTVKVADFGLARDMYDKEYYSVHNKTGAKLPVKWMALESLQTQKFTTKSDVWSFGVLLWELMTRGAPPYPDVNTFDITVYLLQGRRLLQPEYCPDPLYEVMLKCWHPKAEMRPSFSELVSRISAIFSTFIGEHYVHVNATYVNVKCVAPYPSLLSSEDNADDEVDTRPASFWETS
Summary of the method: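 3T3 cells over-expressing human cMet, compared against parental 3T3, seeded at 10⁵ per well and fixed with 0.1% glutaraldehyde for 12 min at 37 C. Blocked peptide-displaying phage bound for 1 h at room temperature. After PBST washes, bound phage was detected with HRP-conjugated anti-M13 antibody.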

Binder | % of binding in the absence of HGF [1] | % of binding in the absence of HGF [2] | Protein ELISA (fold over background) [3] | WC ELISA (fold over background) [4]
B1 | 40% | 60% | 12.3 fold | 1.23 fold
B2 | 71% | 76% | 5.6 fold | 1.3 fold
B3 | 17% | 48% | 16.3 fold | 1.23 fold
B4 | 50% | 77% | 7.7 fold | 1.3 fold
B5 | 36% | 47% | 8.9 fold | 1.27 fold
B6 | 68% | 98% | 9.7 fold | 1.27 fold
B7 | 32% | 70% | 10.3 fold | 1.27 fold
B8 | 49% | 88% | 13.3 fold | 1.87 fold
B9 | 23% | 58% | 12.4 fold | 1.23 fold
B10 | 17% | 33% | 4 fold | 1.3 fold
B11 | 18% | 62% | 7 fold | 1.27 fold
B12 | 71% | 95% | 3 fold | 1.27 fold
B13 | 51% | 52% | 8.4 fold | 1.27 fold
B14 | 36% | 63% | 6.2 fold | 1.27 fold
B15 | 83% | 73% | 3.3 fold | 1.37 fold
B16 | 62% | 97% | 19.5 fold | 1.23 fold
B17 | 62% | 87% | 4.6 fold | 1.37 fold
B18 | 53% | 109% | 16.2 fold | 1.23 fold
B19 | 42% | 68% | 4 fold | 1.3 fold
B20 | 143% | 124% | 3.4 fold | 1.4 fold
B21 | 57% | 69% | 8.4 fold | 1.2 fold
B22 | 96% | 92% | 3 fold | 1.37 fold
